For data set [1], the target named is hSTAU1^55(R)Δ(SSM-‘RBD’5)-FLAG (human). Kind of data set: co-IP.
The next data set has as its target hSTAU1^55-HA3 (human) (UniProt O95793). Kind of data set: co-IP.
The data set “SEC” deals with the molecule itself. Kind of data set: SEC.
The data set “AUC” deals with the molecule itself. Kind of data set: AUC.

The values that follow come from paper PMC4096160 (Nature structural & molecular biology, 2013).

Sequence of hSTAU1^55-HA3 (human) (O95793 82-577): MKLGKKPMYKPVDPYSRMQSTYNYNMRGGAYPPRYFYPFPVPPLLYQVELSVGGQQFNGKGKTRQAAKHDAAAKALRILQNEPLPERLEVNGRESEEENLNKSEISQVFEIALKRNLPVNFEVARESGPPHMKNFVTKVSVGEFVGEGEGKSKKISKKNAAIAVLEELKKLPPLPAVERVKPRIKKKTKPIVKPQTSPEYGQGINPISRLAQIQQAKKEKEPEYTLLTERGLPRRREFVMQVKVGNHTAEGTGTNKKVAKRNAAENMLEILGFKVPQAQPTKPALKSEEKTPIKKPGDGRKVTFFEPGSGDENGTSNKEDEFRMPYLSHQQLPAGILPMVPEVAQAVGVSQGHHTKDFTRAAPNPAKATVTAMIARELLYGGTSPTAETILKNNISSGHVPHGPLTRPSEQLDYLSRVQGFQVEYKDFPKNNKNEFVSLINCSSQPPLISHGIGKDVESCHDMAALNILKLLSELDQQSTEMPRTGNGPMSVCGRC

Regarding “hSTAU1^55-HA3 (from UniProt O95793-2 1-496) (natural protein)”, the level of co-immunoprecipitation as percent of that with WT or Δ(C-Term) in data set [1] was 10%.
On to “hSTAU1^55(R)Δ(SSM-‘RBD’5)-FLAG (domain or fragment)”, for which the level of co-immunoprecipitation as percent of that of WT or Δ(C-Term) with hSTAU1^55-HA3 (human) is 10%.

B1: hSTAU1-‘RBD’2-RBD3 (amino acids 43–173) (domain or fragment)
chain: PLLYQVELSVGGQQFNGKGKTRQAAKHDAAAKALRILQNEPLPERLEVNGRESEEENLNKSEISQVFEIALKRNLPVNFEVARESGPPHMKNFVTKVSVGEFVGEGEGKSKKISKKNAAIAVLEELKKLPP
Turning to B1, the “stoichiometry N” value in “SEC” was found to be 2.

B2: cellular hUPF1 (natural protein)
chain: MSVEAYGPSSQTLTFLDTEEAELLGADTQGSEFEFTDFTLPSQTQTPPGGPGGPGGGGAGGPGGAGAGAAAGQLDAQVGPEGILQNGAVDDSVAKTSQLLAELNFEEDEEDTYYTKDLPIHACSYCGIHDPACVVYCNTSKKWFCNGRGNTSGSHIVNHLVRAKCKEVTLHKDGPLGETVLECYNCGCRNVFLLGFIPAKADSVVVLLCRQPCASQSSLKDINWDSSQWQPLIQDRCFLSWLVKIPSEQEQLRARQITAQQINKLEELWKENPSATLEDLEKPGVDEEPQHVLLRYEDAYQYQNIFGPLVKLEADYDKKLKESQTQDNITVRWDLGLNKKRIAYFTLPKTDSGNEDLVIIWLRDMRLMQGDEICLRYKGDLAPLWKGIGHVIKVPDNYGDEIAIELRSSVGAPVEVTHNFQVDFVWKSTSFDRMQSALKTFAVDETSVSGYIYHKLLGHEVEDVIIKCQLPKRFTAQGLPDLNHSQVYAVKTVLQRPLSLIQGPPGTGKTVTSATIVYHLARQGNGPVLVCAPSNIAVDQLTEKIHQTGLKVVRLCAKSREAIDSPVSFLALHNQIRNMDSMPELQKLQQLKDETGELSSADEKRYRALKRTAERELLMNADVICCTCVGAGDPRLAKMQFRSILIDESTQATEPECMVPVVLGAKQLILVGDHCQLGPVVMCKKAAKAGLSQSLFERLVVLGIRPIRLQVQYRMHPALSAFPSNIFYEGSLQNGVTAADRVKKGFDFQWPQPDKPMFFYVTQGQEEIASSGTSYLNRTEAANVEKITTKLLKAGAKPDQIGIITPYEGQRSYLVQYMQFSGSLHTKLYQEVEIASVDAFQGREKDFIILSCVRANEHQGIGFLNDPRRLNVALTRARYGVIIVGNPKALSKQPLWNHLLNYYKEQKVLVEGPLNNLRESLMQFSKPRKLVNTINPGARFMTTAMYDAREAIIPGSVYDRSSQGRPSSMYFQTHDQIGMISAGPSHVAAMNIPIPFNLVMPPMPPPGYFGQANGPAAGRGTPKGKTGRGGRQKNRFGLPGPSQTNLPNSQASQDVASQPFSQGALTQGYISMSQPSQMSQPGLSQPELSQDSYLGDEFKSQIDVALSQDSTYQGERAYQHGGVTGLSQY
As to B2, the level of co-immunoprecipitation as percent of that with WT or Δ(C-Term) in data set [1] was determined as 10%.

B3: hSTAU1 SSM-‘RBD’5 (hSTAU1 amino acids 367–476) (domain or fragment)
chain: KATVTAMIARELLYGGTSPTAETILKNNISSGHVPHGPLTRPSEQLDYLSRVQGFQVEYKDFPKNNKNEFVSLINCSSQPPLISHGIGKDVESCHDMAALNILKLLSELD
Turning to B3, the Kd in “AUC” turned out to be 79 ± 9 µM. Moreover, in “SEC”, the “stoichiometry N” value came out at 2.
